± gives the half width of the 95% confidence interval.

A short description of data set [1]: folding stability dG unfold from chymotrypsin proteolysis; higher = more stable. The method, boiled down: (§1)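 Unfolding free energy was derived, per protease or combined, against a sequence-predicted unfolded-state K50 and a shared folded-state K50, starting from K50 inferred by Bayesian fitting of sequencing counts. Digestion with trypsin and chymotrypsin was carried out on designed mini-proteins under 80 residues without cysteine in a PA-tagged cDNA display construct. Only designs with AlphaFold2 dimer inter-PAE above 15 were kept.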

A short description of data set [2]: folding stability dG unfold (combined trypsin and chymotrypsin); higher = more stable. The method, boiled down: as §1
Data set [3] is described as follows: folding stability dG unfold from trypsin proteolysis; higher = more stable. The method, boiled down:
as §1

On to “SMSVVVPPDEGLTVTLTTLPGGTIEIHVGDTVLTRDVAPGETLTVTVPPDRTGNTVTVVGPGGVVVTSSGSA [r9_143_JUSTAS]”, for which the “folding stability dG unfold” value in data set [1] turned out to be 0.71 ± 0.024 kcal/mol; in data set [2] it was 0.95 ± 0.044 kcal/mol; in data set [3], 1.18 ± 0.048 kcal/mol.

As to “SMTIELTVPSPEELLAALKALADAGIKGAKIRITVTNPDGEEQEIEVDSIEDLEALIESGPVTVRVEIEPSA [r9_589_TrROS_Hall]”, the entries for the “folding stability dG unfold” value in data set [1], in data set [2] and in data set [3] were 2.5 ± 0.084 kcal/mol, 3.05 ± 0.14 kcal/mol and 3.56 ± 0.13 kcal/mol, respectively.

Take “SMTIRIVDEKTKEVREIKIENLTVEKEKDGRYRMTREQVLEALKKLLPEDVKIVEVEENEDGELTIVVEPSA [r9_997_TrROS_Hall]”: the figures for the “folding stability dG unfold” value in data set [1], in data set [2] and in data set [3] were 2.906 ± 0.025 kcal/mol, 2.77 ± 0.083 kcal/mol and 2.41 ± 0.051 kcal/mol, respectively.

Take “SMTISIPGGITITIEPKPNSYTLTVSFPDGSTVTRPVDPSDLTSAIKAVIREALRRADPNITEEEIEKLLSA [r9_634_JUSTAS]”: the “folding stability dG unfold” value in data set [1] was 6.07 ± 0.17 kcal/mol; in data set [2], more than 6 kcal/mol; in data set [3] it was 4.39 ± 0.1 kcal/mol.

As for “SMTITVKPENIEEVLAQIKALAAKHPKPVTITLEMSPEEVEKLRKALEDAGYKVEVDEKTGKVRIEIKVPSA [r9_600_TrROS_Hall]”, the “folding stability dG unfold” value came out at 3.05 ± 0.096 kcal/mol in data set [1], 3.63 ± 0.074 kcal/mol in data set [2] and 4.52 ± 0.22 kcal/mol in data set [3].

On to “SMTLVLDVSPDKAYKFKIEYKTPDGKRLTVDADTTMEPDGTARVPLKIPDSSVPPGTPLEIEKVEVTPLLSA [r9_359_JUSTAS]”, for which the “folding stability dG unfold” value in data set [1] is 0.699 ± 0.099 kcal/mol; in data set [2] it was 0.436 ± 0.066 kcal/mol; in data set [3] it was -0.136 ± 0.085 kcal/mol.

As for “SMTPEEVKALAEELAERLKEEGYEVEVKVTVEEVDGEKYVTIEIEVRRPDGSTETFRLVIREDGSIEIYPSA [r9_1027_TrROS_Hall]”, the “folding stability dG unfold” value in data set [1] is 4.54 ± 0.17 kcal/mol; in data set [2], 4.37 ± 0.17 kcal/mol; in data set [3] it was 3.49 ± 0.19 kcal/mol.

Regarding “SMTRVKVELLITNPATGETFYYDIEATEEEAEEIAKELEESYPEKNATVTIKKKEVIPVEPPVVLPEGILSA [r9_14_JUSTAS]”, the entries for the “folding stability dG unfold” value in data set [1], in data set [2] and in data set [3] were 0.906 ± 0.057 kcal/mol, 0.815 ± 0.069 kcal/mol and 0.418 ± 0.036 kcal/mol, respectively.

Turning to “SMTTEEKVEVSVTVTPDPNSDNVTLTLTITKRTYAKDENGNWTEVSTETSTITVTLSPEEAAKLAAELLSSA [r9_642_JUSTAS]”, the “folding stability dG unfold” value in data set [1] came out at 4.52 ± 0.099 kcal/mol; in data set [2], 4.34 ± 0.17 kcal/mol; in data set [3], 3.75 ± 0.2 kcal/mol.

“SMTVEVELTVTVEVVDPKTGKKKTVTVKVTVKVRVTEVKTKDGKTEVKVELSEEALEEARRLAEELAKKKSA [r9_698_TrROS_Hall]”: the “folding stability dG unfold” value in data set [1] is 2.95 ± 0.38 kcal/mol; in data set [2], 2.89 ± 0.46 kcal/mol; in data set [3], 3.13 ± 0.13 kcal/mol.

For the sequence “SMTYSYGVDVSEDPNSDKTTATITTTSSDGSSSLSPEEVAAELAAEAKAAGYTVDVELRPGSVTITVTAPSA [r9_510_JUSTAS]”, the results for the “folding stability dG unfold” value in data set [1], in data set [2] and in data set [3] were 0.108 ± 0.086 kcal/mol, 0.354 ± 0.059 kcal/mol and 0.464 ± 0.018 kcal/mol, respectively.

Turning to “SMVEIKVEKKEDGTVKITIVAPLEKAEEIAKKLAEELGKEVKIVKIEKKKVKVNGEERELVKIEIEIRLPSA [r9_431_TrROS_Hall]”, the “folding stability dG unfold” value came to 2.23 ± 0.31 kcal/mol in data set [1], 2.24 ± 0.78 kcal/mol in data set [2] and 2.86 ± 0.28 kcal/mol in data set [3].

As for “SMVEIKVEPEKSIIKATLTLKDKTVEEIKQLAKEYFEKLGYKIKVEVKEVKTFEDSVTLKFEIKVPKGLVSA [r9_347_JUSTAS]”, the results for the “folding stability dG unfold” value in data set [1], in data set [2] and in data set [3] were 2.27 ± 0.11 kcal/mol, 2.45 ± 0.26 kcal/mol and 1.94 ± 0.1 kcal/mol, respectively.

Consider “SMVELKITVKTPEELKKLEEAFKELGVEEVTIERKEDGTVTITVTFKESEEELEERVREALEELGFEVEPSA [r9_1003_TrROS_Hall]”, for which the “folding stability dG unfold” value in data set [1] is 2.82 ± 0.23 kcal/mol; in data set [2] it was 3.18 ± 0.22 kcal/mol; in data set [3], 3.33 ± 0.18 kcal/mol.

For the sequence “SMVIEINEDGTVKVYLPEELKGLSAEEIEELIKKLFGPNVKIEKIEIFEPPPKLTEEEKEELKKLPKEEKSA [r9_1011_TrROS_Hall]”, the “folding stability dG unfold” value is 1.76 ± 0.14 kcal/mol in data set [1], 1.41 ± 0.33 kcal/mol in data set [2] and 0.866 ± 0.17 kcal/mol in data set [3].

Consider “SMVKVEIEEENGEKTIRIVNEETGVVVEIKFPEGEEVIEVPSVEELVEELKELGENIEITKIEPLSEEELSA [r9_1102_TrROS_Hall]”, for which the results for the “folding stability dG unfold” value in data set [1], in data set [2] and in data set [3] were 0.497 ± 0.084 kcal/mol, 0.661 ± 0.25 kcal/mol and 0.425 ± 0.14 kcal/mol, respectively.

“SMVQGTVLPPNGQRLTFEFDPAGTAQERAEQVRALLEALLPPDLKIEVERVEPDRPISADEPGTVLARADSA [r9_178_TrMRF]”: the “folding stability dG unfold” value in data set [1] is 0.0574 ± 0.19 kcal/mol; in data set [2], -0.248 ± 0.28 kcal/mol; in data set [3] it was -0.914 ± 0.56 kcal/mol.

In the case of “SMVRITVYRNGKELSEEELRELAAELERETGRRITVEELARRLAARPGLTVRIEVFNEDGELVEERELRVSA [r9_1045_TrROS_Hall]”, the “folding stability dG unfold” value in data set [1] was found to be 5.14 ± 0.11 kcal/mol; in data set [2], 4.71 ± 0.076 kcal/mol; in data set [3] it was 3.42 ± 0.058 kcal/mol.

(Values after the supplement of paper PMC12764529.)
